T1: EsCas13d, nuclease-dead (Eubacterium siraeum, UniProt B0MS50, R295A;H300A;R849A;H854A)
T1 sequence: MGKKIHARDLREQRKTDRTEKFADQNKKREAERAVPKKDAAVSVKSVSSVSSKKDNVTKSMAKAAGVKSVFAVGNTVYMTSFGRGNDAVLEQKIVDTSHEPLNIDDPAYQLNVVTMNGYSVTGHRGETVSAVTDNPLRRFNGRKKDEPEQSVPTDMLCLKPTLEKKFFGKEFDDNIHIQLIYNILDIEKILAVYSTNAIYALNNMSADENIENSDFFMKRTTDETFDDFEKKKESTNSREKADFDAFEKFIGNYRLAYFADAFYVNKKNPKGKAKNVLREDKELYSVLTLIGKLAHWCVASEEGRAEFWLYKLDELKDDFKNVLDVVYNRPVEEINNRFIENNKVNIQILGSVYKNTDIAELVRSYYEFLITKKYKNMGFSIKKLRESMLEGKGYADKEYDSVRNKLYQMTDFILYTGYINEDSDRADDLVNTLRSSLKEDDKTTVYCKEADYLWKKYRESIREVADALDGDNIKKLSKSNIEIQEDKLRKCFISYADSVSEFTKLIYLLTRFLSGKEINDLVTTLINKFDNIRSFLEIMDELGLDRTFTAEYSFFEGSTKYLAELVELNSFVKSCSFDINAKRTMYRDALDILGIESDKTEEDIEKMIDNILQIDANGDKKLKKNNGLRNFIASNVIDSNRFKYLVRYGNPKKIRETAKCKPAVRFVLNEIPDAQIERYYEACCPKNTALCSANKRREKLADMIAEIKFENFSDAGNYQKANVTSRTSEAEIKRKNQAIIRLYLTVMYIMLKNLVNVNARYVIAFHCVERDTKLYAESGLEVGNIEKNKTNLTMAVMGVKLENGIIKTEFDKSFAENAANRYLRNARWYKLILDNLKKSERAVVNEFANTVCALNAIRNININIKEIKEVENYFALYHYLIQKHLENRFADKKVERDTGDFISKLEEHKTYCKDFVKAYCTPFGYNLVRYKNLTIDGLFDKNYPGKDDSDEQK

B1: target 1 complement block 3-9 (mixed)
RNA 1: CACCCGUGCAAAAAUGCAGGGGUCUAAAACUGAGCGGAUAACCUCUCUAUGG
RNA 2: GGGAAUGGAUCCACAUCUACGAAUUCGUACCAUAGAGAGGUUUAGGCGACACCGAGAUCGGAAGAGCACACGU
B2: target 1 MT 5'PFS GGG 3'PFS CAU (mixed)
RNA 1: CACCCGUGCAAAAAUGCAGGGGUCUAAAACUGAGCGGAUAACCUCUCUAUGG
RNA 2: GGGAAUGGAUCCACAUCUACGAAUUCGGGCCAUAGAGAGGUUAUCCGCUCACAUAGAUCGGAAGAGCACACGU
B3: target 1 MT 5'PFS UCG 3'PFS UUU (mixed)
RNA 1: CACCCGUGCAAAAAUGCAGGGGUCUAAAACUGAGCGGAUAACCUCUCUAUGG
RNA 2: GGGAAUGGAUCCACAUCUACGAAUUCUCGCCAUAGAGAGGUUAUCCGCUCAUUUAGAUCGGAAGAGCACACGU
B4: target 1 MT 5'PFS GGG 3'PFS UUA (mixed)
RNA 1: CACCCGUGCAAAAAUGCAGGGGUCUAAAACUGAGCGGAUAACCUCUCUAUGG
RNA 2: GGGAAUGGAUCCACAUCUACGAAUUCGGGCCAUAGAGAGGUUAUCCGCUCAUUAAGAUCGGAAGAGCACACGU
B5: target 1 MT 5'PFS CCU 3'PFS AUA (mixed)
RNA 1: CACCCGUGCAAAAAUGCAGGGGUCUAAAACUGAGCGGAUAACCUCUCUAUGG
RNA 2: GGGAAUGGAUCCACAUCUACGAAUUCCCUCCAUAGAGAGGUUAUCCGCUCAAUAAGAUCGGAAGAGCACACGU
B6: target 1 MT 5'PFS AAG 3'PFS UUG (mixed)
RNA 1: CACCCGUGCAAAAAUGCAGGGGUCUAAAACUGAGCGGAUAACCUCUCUAUGG
RNA 2: GGGAAUGGAUCCACAUCUACGAAUUCAAGCCAUAGAGAGGUUAUCCGCUCAUUGAGAUCGGAAGAGCACACGU
B7: target 1 MT 5'PFS GCA 3'PFS UUU (mixed)
RNA 1: CACCCGUGCAAAAAUGCAGGGGUCUAAAACUGAGCGGAUAACCUCUCUAUGG
RNA 2: GGGAAUGGAUCCACAUCUACGAAUUCGCACCAUAGAGAGGUUAUCCGCUCAUUUAGAUCGGAAGAGCACACGU
B8: target 1 MT 5'PFS GCA 3'PFS UUG (mixed)
RNA 1: CACCCGUGCAAAAAUGCAGGGGUCUAAAACUGAGCGGAUAACCUCUCUAUGG
RNA 2: GGGAAUGGAUCCACAUCUACGAAUUCGCACCAUAGAGAGGUUAUCCGCUCAUUGAGAUCGGAAGAGCACACGU
B9: target 1 MT 5'PFS AAG 3'PFS UUC (mixed)
RNA 1: CACCCGUGCAAAAAUGCAGGGGUCUAAAACUGAGCGGAUAACCUCUCUAUGG
RNA 2: GGGAAUGGAUCCACAUCUACGAAUUCAAGCCAUAGAGAGGUUAUCCGCUCAUUCAGAUCGGAAGAGCACACGU
B10: target 1 MT 5'PFS GGG 3'PFS UUU (mixed)
RNA 1: CACCCGUGCAAAAAUGCAGGGGUCUAAAACUGAGCGGAUAACCUCUCUAUGG
RNA 2: GGGAAUGGAUCCACAUCUACGAAUUCGGGCCAUAGAGAGGUUAUCCGCUCAUUUAGAUCGGAAGAGCACACGU
B11: target 1 MT 5'PFS GGG 3'PFS CAA (mixed)
RNA 1: CACCCGUGCAAAAAUGCAGGGGUCUAAAACUGAGCGGAUAACCUCUCUAUGG
RNA 2: GGGAAUGGAUCCACAUCUACGAAUUCGGGCCAUAGAGAGGUUAUCCGCUCACAAAGAUCGGAAGAGCACACGU
B12: target 1 MT 5'PFS CCU 3'PFS AUC (mixed)
RNA 1: CACCCGUGCAAAAAUGCAGGGGUCUAAAACUGAGCGGAUAACCUCUCUAUGG
RNA 2: GGGAAUGGAUCCACAUCUACGAAUUCCCUCCAUAGAGAGGUUAUCCGCUCAAUCAGAUCGGAAGAGCACACGU
B13: target 1 MT 5'PFS GGG 3'PFS CAC (mixed)
RNA 1: CACCCGUGCAAAAAUGCAGGGGUCUAAAACUGAGCGGAUAACCUCUCUAUGG
RNA 2: GGGAAUGGAUCCACAUCUACGAAUUCGGGCCAUAGAGAGGUUAUCCGCUCACACAGAUCGGAAGAGCACACGU
B14: target 1 MT 5'PFS GCU 3'PFS AGA (mixed)
RNA 1: CACCCGUGCAAAAAUGCAGGGGUCUAAAACUGAGCGGAUAACCUCUCUAUGG
RNA 2: GGGAAUGGAUCCACAUCUACGAAUUCGCUCCAUAGAGAGGUUAUCCGCUCAAGAAGAUCGGAAGAGCACACGU
B15: target 1 MT 5'PFS UAG 3'PFS AAG (mixed)
RNA 1: CACCCGUGCAAAAAUGCAGGGGUCUAAAACUGAGCGGAUAACCUCUCUAUGG
RNA 2: GGGAAUGGAUCCACAUCUACGAAUUCUAGCCAUAGAGAGGUUAUCCGCUCAAAGAGAUCGGAAGAGCACACGU
B16: target 1 MT 5'PFS GGG 3'PFS UUC (mixed)
RNA 1: CACCCGUGCAAAAAUGCAGGGGUCUAAAACUGAGCGGAUAACCUCUCUAUGG
RNA 2: GGGAAUGGAUCCACAUCUACGAAUUCGGGCCAUAGAGAGGUUAUCCGCUCAUUCAGAUCGGAAGAGCACACGU
B17: target 1 MT 5'PFS GGG 3'PFS UUG (mixed)
RNA 1: CACCCGUGCAAAAAUGCAGGGGUCUAAAACUGAGCGGAUAACCUCUCUAUGG
RNA 2: GGGAAUGGAUCCACAUCUACGAAUUCGGGCCAUAGAGAGGUUAUCCGCUCAUUGAGAUCGGAAGAGCACACGU
B18: target 1 MT 5'PFS UAG 3'PFS AAC (mixed)
RNA 1: CACCCGUGCAAAAAUGCAGGGGUCUAAAACUGAGCGGAUAACCUCUCUAUGG
RNA 2: GGGAAUGGAUCCACAUCUACGAAUUCUAGCCAUAGAGAGGUUAUCCGCUCAAACAGAUCGGAAGAGCACACGU
B19: target 1 insA 3' of 17,insA 3' of 4 (mixed)
RNA 1: CACCCGUGCAAAAAUGCAGGGGUCUAAAACUGAGCGGAUAACCUCUCUAUGG
RNA 2: GGGAAUGGAUCCACAUCUACGAAUUCGUACCAUAGAAGAGGUUAUCCGCAUCACCGAGAUCGGAAGAGCACACGU
B20: target 1 del1 (mixed)
RNA 1: CACCCGUGCAAAAAUGCAGGGGUCUAAAACUGAGCGGAUAACCUCUCUAUGG
RNA 2: GGGAAUGGAUCCACAUCUACGAAUUCGUACCAUAGAGAGGUUAUCCGCUCCCGAGAUCGGAAGAGCACACGU
B21: target 1 A1C,C4A (mixed)
RNA 1: CACCCGUGCAAAAAUGCAGGGGUCUAAAACUGAGCGGAUAACCUCUCUAUGG
RNA 2: GGGAAUGGAUCCACAUCUACGAAUUCGUACCAUAGAGAGGUUAUCCGAUCCCCGAGAUCGGAAGAGCACACGU
B22: target 1 MT 5'PFS UAG 3'PFS AAA (mixed)
RNA 1: CACCCGUGCAAAAAUGCAGGGGUCUAAAACUGAGCGGAUAACCUCUCUAUGG
RNA 2: GGGAAUGGAUCCACAUCUACGAAUUCUAGCCAUAGAGAGGUUAUCCGCUCAAAAAGAUCGGAAGAGCACACGU
B23: target 1 U10A,G15C (mixed)
RNA 1: CACCCGUGCAAAAAUGCAGGGGUCUAAAACUGAGCGGAUAACCUCUCUAUGG
RNA 2: GGGAAUGGAUCCACAUCUACGAAUUCGUACCAUAGACAGGUAAUCCGCUCACCGAGAUCGGAAGAGCACACGU
B24: target 1 MT 5'PFS GCU 3'PFS AGC (mixed)
RNA 1: CACCCGUGCAAAAAUGCAGGGGUCUAAAACUGAGCGGAUAACCUCUCUAUGG
RNA 2: GGGAAUGGAUCCACAUCUACGAAUUCGCUCCAUAGAGAGGUUAUCCGCUCAAGCAGAUCGGAAGAGCACACGU
B25: target 1 MT 5'PFS UCG 3'PFS CUA (mixed)
RNA 1: CACCCGUGCAAAAAUGCAGGGGUCUAAAACUGAGCGGAUAACCUCUCUAUGG
RNA 2: GGGAAUGGAUCCACAUCUACGAAUUCUCGCCAUAGAGAGGUUAUCCGCUCACUAAGAUCGGAAGAGCACACGU
B26: target 1 MT 5'PFS AGC 3'PFS AAA (mixed)
RNA 1: CACCCGUGCAAAAAUGCAGGGGUCUAAAACUGAGCGGAUAACCUCUCUAUGG
RNA 2: GGGAAUGGAUCCACAUCUACGAAUUCAGCCCAUAGAGAGGUUAUCCGCUCAAAAAGAUCGGAAGAGCACACGU
B27: target 1 insC 3' of 16,insA 3' of 8 (mixed)
RNA 1: CACCCGUGCAAAAAUGCAGGGGUCUAAAACUGAGCGGAUAACCUCUCUAUGG
RNA 2: GGGAAUGGAUCCACAUCUACGAAUUCGUACCAUAGACGAGGUUAUACCGCUCACCGAGAUCGGAAGAGCACACGU
B28: target 1 MT 5'PFS GGG 3'PFS CAG (mixed)
RNA 1: CACCCGUGCAAAAAUGCAGGGGUCUAAAACUGAGCGGAUAACCUCUCUAUGG
RNA 2: GGGAAUGGAUCCACAUCUACGAAUUCGGGCCAUAGAGAGGUUAUCCGCUCACAGAGAUCGGAAGAGCACACGU

Molecular target: T1, EsCas13d, nuclease-dead
Experiment: crRNA (strand 1, pre-loaded); Mg2+; 40 mM Tris-HCl pH 7.5, 150 mM NaCl, 6 mM MgCl2, 1 mM DTT, 0.1% Tween-20, 0.2 mg/ml BSA; 25 C; 10 min per concentration, then washed
Details: tags: His6-TwinStrep-SUMO cleaved; N-terminal SNAP kept (SNAP-Surface 488); label: 3' end held by stalled T7 RNA polymerase

Binder | Kd [nM]
B1 | 8.8 ± 0.4
B2 | 32 ± 12
B3 | 24 ± 5
B4 | 16.8 ± 2.55
B5 | 21 ± 5
B6 | 13.5 ± 2
B7 | 11 ± 2.4
B8 | 5.14 ± 0.38
B9 | 16 ± 6
B10 | 14.7 ± 2.05
B11 | 50.5 ± 21.5
B12 | 21 ± 8
B13 | ~55.5
B14 | 56 ± 16.5
B15 | 45.5 ± 13
B16 | 16.4 ± 1.95
B17 | 7.3 ± 0.45
B18 | 34 ± 6
B19 | 10 ± 0.7
B20 | 39 ± 9
B21 | 7.5 ± 1
B22 | 34 ± 7
B23 | 98 ± 17
B24 | 36 ± 7
B25 | 29 ± 7
B26 | ~52
B27 | 56 ± 12
B28 | 32 ± 5.5

— article PMC10786891, “Massively parallel profiling of RNA-targeting CRISPR-Cas13d”
